According to the nanobody polyreactivity screen of Harvey et al. (2022):

Assay: yeast display, Sf9 membrane polyspecificity reagent, FACS + sequencing; frameworks hold sequencing errors
Outline: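 After 36–48 hours of galactose induction, yeast (Saccharomyces cerevisiae BJ5465) displaying a synthetic nanobody library were stained at 4 °C for 1 hour with 10% biotinylated, detergent-solubilized Sf9 membrane reagent. Streptavidin microbeads enriched the stained cells before FACS sorting into low and high (top ~1%) gates on anti-HA and streptavidin fluorescence. Each clone's polyreactivity label reflects its gate of origin.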

Sequence	polyreactivity (PSR sort gate)
QVQLVESGGGLVQAGGRLRLSCAASGSIFRPNPMGLYRQAPGKDRELVAAITWSGDSTYYADSVKGRFTISRDNAKNTVYLQMNSLKPEDTAVYYCAADFTYQGYSANDYWGQGTQVTVSS	low polyreactivity
QVQHVESGGGLVQAGGSLRLSCAASGRTLYNYAMGWYRQAPGKEWELVAAISGSGGSTYYADSVKGRFTISRDNAKNTVYLQMNSLKPEDTEVYFCAKYRGIYPDVRGTYYWGQGTQVTVSS	high polyreactivity
QVQLVESGGGLVQAGGRLRLSCAASGRTFRKYTMGWYRQAPGKEREFDAAITYSGGSTYYADSVKGRFTISRDNAKNTVYLQMNSLKPEDTAVYYCVTRGGYYLYYSYYYWGQGTQVTVSS	high polyreactivity
QVQLVESGGGLVQAGVSLRLSCAASGFTFYYNAMGWYRQAPGKERELVAAINYSGGSTYYADSVKGRFTISRDNAKNTVYLQMNSLKPEDTAVYYCNAVGYSVFRRYNYWGQGTQVTVSS	high polyreactivity
QVQLVESGGGLVQAGASLRLSCAASGRTFPGYAMGWSRQAPGKERELVAAITYRGGSTYYADSVKGRFTISRDNAKNTVYLQMNSLKPEDTAVYYCNARHSRSRFYYWGQGTQVTVSS	high polyreactivity
QVQLVESGGGLVQAGGSLRISCAASGSTFANYSMGWYRQAPGKERELVAVISVRGGSTYYADSVKGRFTISRDNAKNTVYLQMNSLKPEDTAVYYCAADASGPRRYDSWGQGTQVTVSS	high polyreactivity
QVQLVESGGGLVQAGGSLRLSCAASGSTFQFYAMGWYRQAPGKERELVAVITSGDDTNYADSVKGRFTISRDNAKNTVYLQMNSLKPEDTAVYYCDVDYILVYTRVRSYWFDYWGQGTQVTVSS	low polyreactivity
QVQLVESGGGLVQAGGSLRLSCAASGSTFGWYGMGWYRQAPGKERELVASIRWSGGITYYADSVKGRFTISRDNAKNTVYLQMNSLKPEDTAVYSCAARTYRYFGRYDYWGQGTQVTVSS	high polyreactivity
QVQLVESGGGLVQAGGSLRLSCAASGRTFGYNALGWYRQAPGKERELVAAINWSGASTYYADSVKGRFTISRDKAKNTVYLQMNSLKPEDTAVYYCAKVTRGSQYDYWGQGTQVTVSS	low polyreactivity
QVQLVETGGGLVKAGGSLRLSCAASGRTFGKYAMGWYRQETGKESELVAAITTRVVITYYADSVKGRFTISRDNAKNTVYLQMNSLKPEDTAVYYCAADPEKNYRPFNHYYYWGQGTQVTVSS	low polyreactivity
QVQLVESGGGLVQAGGSLRLSCAASGRIFARYAMGWYRQAPGKERELVAAITVSGDNTYYADSVKGRFTISRDNAKNTVYLQMNSLKPEDTAVYYCAVRAVLLFGFFEYDYWGQGTQVTVSS	low polyreactivity
QVQLVESGGGLVQAGGSLRLSCAASGSIFPSYAMGWYRQAPGKERELVATISGSGTRTYYADSVKGRFTISRDNAKNTFYLQMNSLKPEDTAVYYCARLPPGDMDYWGQGTQVTVSS	low polyreactivity
QVQLVESGGGLVQAGGSLRLSCAPSGRTFWAYAMGWYRQAPGKERELVAAITRSGTTTSYADSVKGRFTISRDNAKNTVYLQMNSLKPEDTAVYYCNARPIRVYINSAQHYDYWGQGTQVTVSS	high polyreactivity
QVQLVESGGGLVQAGGSLRLSCAACGSIFDYYTMGWYRQAPGKEREFVAGISDSGGSTNYADSVKGRFTISRDNAKNTVYLQINSLKPEDTAVYYCNAEYVGWFYKYDYWGQGTQVTVSS	high polyreactivity
QVQLVESGGGLVQAGGSLRLSCAASGRTIRWYTMGWYRQAPGKERELVAGISSSGGSTYYAESVKGRYTISRDYAKNTVYLQMNSLKPEDTAVYYCAASAAYYGFYKSVSYEYWGQGTQLTVSS	low polyreactivity
QVQLVESGVGLVQAGGSLRLSCAASGSTFTYYAMGWYRQAPGKESELVAAITASGTSTYYPDSVKGRFTISRDYAKNTVYLQMNSLKPEDTAVYYCAATRFKWTRIYPYYTGQGYNYWGQGTQVTVSS	high polyreactivity
QVQLVESGGGLVQAGGSLRLSCAASGRIFFVYAMGWYRQSPGKERELVAAISVSDVSTSYADSVKGRFTISRDIAKNTVYLQMNSLKQEDTAVYYCNAGFRFYVYSRIGGEDYWGQGTQVTVSS	low polyreactivity
QVQHVESGGGLVQAGGSLRLSCAASAIIFGDYAMGWYRQAPGKETELVAAINLDGTSTYYADSVKGRFTISRDIAKHSVYLQINSLKTEDTAGFYCAAVPDKYCCRVRRYLFEHNYWGQGTQVTVSS	low polyreactivity
PVQLVESGGGLVQAGGSLRLSCAASGSTFYPNAMGWYRQAPGKEWELVAASTAGGSTYYADSVKGRFTISRDNAKNTVYLQMTSLKPEDTAVYSCAADFYWYWWQDWYDYWGQGTQVTVSS	high polyreactivity
QVQLVESGGGLVQAGGSLRLSCAASGSIFYLYDKGWYRQAPGKERELVADITWSGGSTYYADSVKGRFTISRDNAKNTVYLQMYSLKPEDTAVYYCAAAYGPFYYELYDYWGLGTQVTVSS	low polyreactivity
QVQLEESGGGLVQAGGSLRLSCAASGRIIQQYAMGWSRQAPGKDRELVAAISRGGSTYYADSEKGRFTISRDNAKNTVYLLMYSLKPEDTAVYDCNAGVGFTSAPQKYYYWGEGTQVTVSS	high polyreactivity
QVQLVESGGGLVQAGGSLRFSCAASGFIFTLYAMGWYRQAPGKERELVASIRGSGGNTYYADSVKGRFTISRDNEKNTVYLQMNSLKPEDTAVYYCAARTYRRPYYSWGQGTQVTVSS	high polyreactivity

Sequence	polyreactivity (PSR sort gate)
QVQLVESGGGLVQAGGSLRLSCAASGSIFPFYAMGWYIQAPGKERELVAAISDRGGSTYYADSVKGRFTISRDNAKNTVYLQMNSLKPEDTAVYYCAADKYSQWSSHTRVRYDYWGQGTQVTVSS	low polyreactivity
QVQLVESGGGLVQAGGSLRLSCAASGITIPVYLGWYRQAPGKETELVAAISSGGSTYADSVKGRFTISRDNAKNTVYLQMNSLKPEDTAVYYCNADRWFGNYLHLTFLNDYWGQGTQVTVSS	low polyreactivity
QVQLVESGGGLVQAGGSLRLSCAASGRIFTTYAMGWYRQAPGKERELVASISWRVGSTYYADSVKGRFTISRDNAKITVYLQMNSLKPEETAVYYCAAVGGNYHASGLRYYWGQGNQVTVSS	low polyreactivity
QVQHVESGGGLVQAGGSLRLSCAASGSTFSHYAMGWYRQAPGKERELVASINSAGSTNYADSVKGRFTISRDNAKNTVYLQMNSLKPEDTAVYYCNTEVQVYSYNYWGQGTQVTVSS	low polyreactivity
QVQLVESGGGLVQAGGSLRLSCAASGRIFRRYAMGWYRQAPGKERELVAAISSGGGSTYYADSVKGRFTISRDNAKNTVYLQMNSLKPEDTAVYYCNTDFYYDDVSQAHDYWGQGTQVTVSS	high polyreactivity
QVQLVESGGGLVQAGGSLRLSCAASGNTFRWYVMGWYRQAPGKERELVAAITSSGSTTYYADSVKGRFTISRDNAKNTVYLQMNSLKPEDTAVYYCAADGRTITYSPVDYDSWGQGTQVTVSS	low polyreactivity
QVQLVESGGGLVQAGGSLRLSCAASGRIFEINAMGWYRQAPGKERELVAGISYSGGSTYYADSVKGRFTISRDNAKNTVYLQMNSLKPEDTAVYYCAALFQSYQITYDSWGQGTQVTVSS	low polyreactivity
QVQHVESGGGLVQAGGSLRLSCAASGIIFHSYAMGWYRQAPGKERELVAAISKNVVSTYYADSVKGRFTISRDNAKNTVYLQMNSLKPEDTAVYYCATLKPYRARQRDYWGQGTQVTVSS	high polyreactivity
QVQHVESGGGLVQAGGSLRLSCAASGVIIIGNAVGWYREAPVKEWEFVASIRGVGSTNYADSVKGRFTISRDNAKNTVYVQMNSLKPADSAVYYCATSVDRALYTQTRGDYEYWGQGTQVTVSS	low polyreactivity
QVQLVEAGGGLVQAGGSLRLSCAASGSIFFIYAMGWYRQAPGKERELVAAITSGDRTYYADSVKGRFTISRDNAKNTVYLQMNSLKPEDTAVYYCNADYYISYWGQGTQVTVSS	low polyreactivity
QVQLVESGGGLVQAGGSLRLSCAASGRTFRFYAMGWYRQAPGKEREFVAAISRCVGSTYYADSVKGRFTISRDNAKNNVYLQMNSLKPEDTAVYYCNADYRSRYVEYDYWGQGTQVTVSS	high polyreactivity
QVQLVESGGGLVQAGGSLRLSCAASGRTFAGNAMGWYRQAPGKERELVAAISQGGGSTYYADSVKGRFTISRDNAKNTVYLQMNSLKPEDTAVYYCAVDFRRYPGFDYWGQGTQVTVSS	low polyreactivity
QVQLVESGGGLVQAGGSLRLSCAASGGIFSFKAMGWYIQAPGKERELVAAITTRGGSTYYADSVKGRFTISRDNAKNTVYLQMNSLKPEDTAVYYCAAEGYEEFNWGQGTQVTVSS	low polyreactivity
QVQLVESGGGLVQAGGSLRLSCAASGITFPWYAMGWYRQAPGKERELVAAINLAGNTNYADSVKGRFTISRDNAKNNVYLQMNSLKPEDTSVYYCAARWRYKYTLGYWGQGTQVTVSS	high polyreactivity
QVQLVESGGGLVQAGGSLRLSCAASGSIFRGYAMGWYRQAPGKERELVAAITSSGGSTNYADSVKGRFTISRDNAKNTVYLQMNSLKPEDTAVYYCNATSEEVAEYDYWGQGTQVTVSS	low polyreactivity
QVQLVESGGGLFQAGGSLRLSCAASGFIFGLYAMGWYRQAPGKEREFVAAISTSSGITYYADSVKGRFTISRDNAKNTVYLQMNSLKPEDTAVYDCAARGHYYDYWRQGTQVTVSS	low polyreactivity
QVQLVESGGGLVQAGGSLRLSCAASGSTFHRYVMGWYRQAPGKERELVAVINSTGGSTYYADSVKGRFTISRDNAKNTVYLQMNSLKPEDTAVYYCARVTRRGPGYTTLYSRYDYWGQGTQVTVSS	low polyreactivity
QVQLVESGGGLVQAGGSLRLSCAASGFIFVYYAMGWYRQAPGKERELVAAISSDGSTNYADSVKGRFTISRDNAKNTVYLQMNSLKPEDTAVYYCNARYVASPSGKRRLIDVDYWGQGTQVTVSS	low polyreactivity
QVQLVESGGGLVQARGSLRLSCAPSGRTFQLNAMGWYRQAPGKERQLFAAITVSGGGKYYADSVKGRFTISRDYAKNTVYFQMNSLKPEDTAVYYCNAKYKTRGRKSLYDYWGQGTQVTVSS	high polyreactivity
QVQIVESGGGLVQAGGSLRLSCAPSGRIITRKTMGWYRQAPGKEREFVAAISQSGGRTYYADSVKGRFTISRDNAKNTVYLQMNSLKPEDTAVYYCNAQFARSSGFNYWGQGTQVTVSS	high polyreactivity
QVQLVESGGGLVQAGGSLRLSCAASGRTFNRNAMGWYRQAPGKERELVAAISRGGGGTFYADSVKGRFTISRDNAKNTVYLQMNSLKPEDTAVYYCAAELYYWTYVRFDYWGQGTQVTVSS	low polyreactivity
